Measured values as given in the RNAGym collection of RNA variant scans (doi:10.7554/elife.80360).

B1: HDV Ribozyme (parent)
chain: GGCCGGCAUGGUCCCAGCCUCCUCGCUGGCGCCGGCUGGGCAACAUUCCGAGGGGACCGUCCCCUCGGUAAUGGCGAAUGGGACCCA

Variants of: B1
Test: self-cleavage, relative activity (ratio to wild type); higher = more cleavage; co-transcriptional
Variant GGCCGGCAUGAUCCCAGCCUCCUCGCUGGCGCCGGCUGGGCAACAUUCCGAGGGGACCGUCCCCUCGGUAAUGGCGAUUGGGACCCA [G11A A78U] has a self-cleavage of 0.111.
For GGCCAGCAUGGUCCCGGCCUCCUCGCUGGCGCCGGCUGGGCAACAUUCCGAGGGGACCGUCCCCUCGGUAAUGGCGAAUGGGACCCA [G5A A16G], the self-cleavage was 0.35.
GGCCGGCAUGGUCCCAGCCUCCUCGCUGGCGCCGGCUGGGCAACAUUCCGAGGGGACCGUCCCCUCGGUUAUGGCGCAUGGGACCCA [A70U A77C] showed a self-cleavage of 0.0978.
GGCCGGCAUGGUUCCAGCCUCCUCGCUGGCGCCAGCUGGGCAACAUUCCGAGGGGACCGUCCCCUCGGUAAUGGCGAAUGGGACCCA [C13U G34A] gave a self-cleavage of 0.0875.
For GGCCGGCAUGGUCCCAGCCUCCUCGCUGGCGCCGGCUGGGCAACAUUCCGAGGGGACCGUACCCUCGGAAAUGGCGAAUGGGACCCA [C61A U69A], the self-cleavage was 1.09.
Variant GGCCGGCAUGGUCCCAGCCUCCUCGCUGGCGCCGGCUGGGUAACAUUCCGAGGGAACCGUCCCCUCGGUAAUGGCGAAUGGGACCCA [C41U G55A] has a self-cleavage of 1.06.
Work on GGCCGGCAUGGUCCCAGCCUCCUCGCUGGCGCCGGCUGGGCAACAUCCCGAGGGGGCCGUCCCCUCGGUAAUGGCGAAUGGGACCCA [U47C A56G] yielded a self-cleavage of 0.665.
Variant GGCCGGCAUGGUCCCUGCCUCCUCGCUGGCGCCGGCUGGGCAACAUUCCGAGGGGACCGUCCCCUCAGUAAUGGCGAAUGGGACCCA [A16U G67A] has a self-cleavage of 0.988.
In the case of GGCCGGCAUGGUCCCAGCCUCCUCGCUGGCGUCGGCUGGGCAACAUUCCGAGGGGACCGUCCCCUCGGUAAUGGCGAGUGGGACCCA [C32U A78G], the self-cleavage is reported as 0.525.
GGCCGGCAUGGUCCCAGCCUCCGCGCUGGCGCCGGCUGGGCAACAUUCCGAGGGGACCGUCCCCUCGGUAAUGGCGAGUGGGACCCA [U23G A78G] showed a self-cleavage of 0.262.
For GGCCGGCAUGGUCCCAGCCUCCUCGCUGGCGCCGACUGGGCAACAUUCCGAGUGGACCGUCCCCUCGGUAAUGGCGAAUGGGACCCA [G35A G53U], the self-cleavage was 0.736.
GGCCGGCAUGGUCCCAGCCUCCUCGCUGGCGCCGGCUGGGCAACAUUCCGAGGGGACCGUCCCGUCGGUAAUGGCUAAUGGGACCCA [C64G G76U] showed a self-cleavage of 1.05.
GGCCGGCAUGGUCCCAGCCUCCUCGCUGGCUCCGGCUGGGCAACAUUCCGAGGGGACCGUGCCCUCGGUAAUGGCGAAUGGGACCCA [G31U C61G] showed a self-cleavage of 0.332.
GGCGGGCAUGGUCCCAGCCUCCUCGCUGGCGCCGGCUGGGCAACAUACCGAGGGGACCGUCCCCUCGGUAAUGGCGAAUGGGACCCA [C4G U47A] gave a self-cleavage of 0.346.
GGCCGGCAUAGUCCCAGCCUCCUCACUGGCGCCGGCUGGGCAACAUUCCGAGGGGACCGUCCCCUCGGUAAUGGCGAAUGGGACCCA [G10A G25A] gave a self-cleavage of 0.126.
In the case of GGCCGGCAUGGUCCCAGCCUCCUCGCUGGCGCCGGCUGGGCAACAUUCCCAGGGGACCGUCCCCUCGGUAAUGGCGGAUGGGACCCA [G50C A77G], the self-cleavage is reported as 0.665.
With GGCCGGCAUGGUCCCAGCCUCCUCGCUGGCGCCGGCUGGGCAACAUUCCGAGGGGACCGACCCCUCCGUAAUGGCGAAUGGGACCCA [U60A G67C] the self-cleavage was 1.03.
In the case of GGCCGGCAUGGUCCCAGCCUCCUCGCUGACGCCGGCUGGGCAACAUUCCGAGGGGACCGUCGCCUCGGUAAUGGCGAAUGGGACCCA [G29A C62G], the self-cleavage is reported as 0.169.
Variant GGCCGGCAUGGUCCCAGCCUCCGCGCUGGCGCCGGCUGGGCAACAUUCCGAGGGGACCGACCCCUCGGUAAUGGCGAAUGGGACCCA [U23G U60A] has a self-cleavage of 0.831.
Work on GGCCGGCAUGGUCUCAGCCUCCUCGCUGGCGCCGGCUGGGCAACAUUCCGAGGGGACCGUCCCCUCGGUAAUGGCGAAGGGGACCCA [C14U U79G] yielded a self-cleavage of 0.89.
In the case of GGCCGGCAUGGUCCCUGCCUCCUCGCUGGCGCCGGCUGGGCAACAUUCCGAGCGGACCGUCCCCUCGGUAAUGGCGAAUGGGACCCA [A16U G53C], the self-cleavage is reported as 1.01.
Work on GGCCCGCAUGGUCCCAGCCUCCUCGCUGGCGCCGGCUGGGCAACAUUCCGAGGAGACCGUCCCCUCGGUAAUGGCGAAUGGGACCCA [G5C G54A] yielded a self-cleavage of 0.0831.
GGCCGGCAAGGUCCCAGCCUUCUCGCUGGCGCCGGCUGGGCAACAUUCCGAGGGGACCGUCCCCUCGGUAAUGGCGAAUGGGACCCA [U9A C21U] gave a self-cleavage of 0.155.
GGCCGGCAUGGUCCCAGCCUUCUCGCUGGCGCCGGCUGGGCAACAUUCCGAGGGGACCGUCCCCUCGCUAAUGGCGAAUGGGACCCA [C21U G68C] showed a self-cleavage of 0.0875.
Variant GGCCGGCAUGGUCCCAGCCUCCUCGCUGGCGCCUGCUGGGCAACAUUCCGAGGGGACCGUCCCCUCGGUAAUGGCGAAUCGGACCCA [G34U G80C] has a self-cleavage of 0.143.
For GGCCGGCAUGGUCCCAGCCUCCUCGAUGGCACCGGCUGGGCAACAUUCCGAGGGGACCGUCCCCUCGGUAAUGGCGAAUGGGACCCA [C26A G31A], the self-cleavage was 0.818.
Work on GGCCGGCAUGGUCCCAGCCUCCUCGCUGGCGCCGGCUGGGCAACAUUACGAGGGGACCGUCCCCUCGGUAAUGGCGAAUGGGUCCCA [C48A A83U] yielded a self-cleavage of 0.465.
Variant UGCCGGCAUGGUCCCAGCCUCCUCGCUGGCGCCGGCUGGGCAACAUUCCGAGGGGACCGUCCCCUCGGUAAUGGCGAAUGGGAUCCA [G1U C84U] has a self-cleavage of 0.389.
Variant GGCCGGCAUGGUCCCAGCCUCCUCGCUGGCGUCGGCUGGGCAACAUUCCGAGGGGACCGUCCCCUCGGUAAUGGCGAAUGGGACCGA [C32U C86G] has a self-cleavage of 0.739.
Work on GGCCGGCAUGGUUCCAGCCUCCUCGCUGGCGCCGGCUGGGCAACAUUCCGAGGGGACCGUCCCCUCGGUAAUGGAGAAUGGGACCCA [C13U C75A] yielded a self-cleavage of 0.148.
For GGCCGGCAUGUUCCCAGCCUCCUCGCUGGCGCCGGCUGGGCAACAUUCCGAGGGGACCGUCCCCUCGGUAAUGGCGAAUGGGGCCCA [G11U A83G], the self-cleavage was 0.175.
With GGCCGGCAUGGUCCCAGCCACCUCGCUGGCGCCGGAUGGGCAACAUUCCGAGGGGACCGUCCCCUCGGUAAUGGCGAAUGGGACCCA [U20A C36A] the self-cleavage was 0.135.
